Assay results published in patent publication US20210162028A1, “Methods for Inducing Intermittent Fasting and Modulating Autophagy” (The Hong Kong Polytechnic University, priority 2019, published 2021).
“Also recorded” adds a separate entry of the source.

Legend:
[1] = Bodyweight of treated mice; assay type: in vivo, mouse
LC3-II/LC3-I = experiment: Autophagic flux in liver, LC3-II/LC3-I western blot with chloroquine; assay type: in vivo, mouse; conditions: DIO male mice on HFD; 600 U once a week, 4 weeks; Day 3 of cycle
Method: Ratio of LC3-II/LC3-I proteins was used as a marker of autophagy and was semiquantified by western blotting. Chloroquine (an autophagy inhibitor, CQ) was injected 5 hr to accumulate autophagosome in the liver before tissue collection. *P<0.05, one-way ANOVA followed by Bonferroni test. Data are expressed as mean±SEM, n=3 for each group.
Autophagy is involved in cell growth, survival, development and death. Impaired autophagic flux has been linked to a variety of human pathophysiological processes, including neurodegeneration, cancer, myopathy, cardiovascular and immune-mediated disorders. There is a growing need to identify and quantify the status of autophagic flux in different pathological conditions. Autophagy is a highly dynamic and complex process that is regulated at multiple steps. Autophagic flux can be detected by LC3-II turnover using western blot analysis in the presence and absence of lysosomal degradation inhibitors, chloroquine (CQ). If autophagic flux is occurring, the level of LC3-II will increase in the presence of a lysosomal degradation inhibitor because the transit of LC3-II through the autophagic pathway will be blocked.

[2] = tested on: primary culture of mouse hypothalamic neurons; experiment: Western blot of primary culture of mouse hypothalamic neurons; assay type: cell-based; conditions: 2 U/mL
Text: The arcuate nucleus in the hypothalamus has received extensive attention as an integrator and regulator of energy homeostasis and appetite. These neurons can rapidly sense metabolic fluctuations in the blood. Others have recently implicated autophagy in central appetite regulation and leptin sensitivity (Park et al., Nature Communications. 2020; 11: 1914). Knockdown of an essential autophagy gene autophagy-related 7 (Atg7), leads to accumulation of p62 in POMC neurons, resulting in an increase in bodyweight and appetite. Besides, it has been shown that amino acid deprivation/imbalance can trigger a reduction in food intake via eIF2α/ATF4 pathway [Maurin et al., Cell Rep. 2014 Feb. 6(3): 438-444]. In our study, mature hypothalamic neurons (after 14 day in vitro culture) were exposed to vehicle or 2 U/mL N-ABD094-rhArg (SEQ ID NO: 50) for 1 hr, 4 hrs, 8 hrs or 24 hrs. After treatment, proteins were harvested from whole cell lysate of neurons and subjected to western blot analysis for examining the short-term effect of arginine depletion on hypothalamic neurons. Autophagy markers (LC3B and p62) were analyzed. […] These findings supported that N-ABD094-rhArg (SEQ ID NO: 50) induced an autophagic flux in hypothalamic neurons.

[3] = tested on: p62, LC3-II/LC3-I, p70S6K1, ULK1; experiment: Western blotting of autophagy markers in brown adipose tissue; assay type: in vivo, mouse; conditions: 600 U once a week, 4 weeks
Text: FIG. 49 illustrates the changes of relative p62 protein levels, detected by western blotting, at different days of a 7-day intermittent fasting cycle in the brown adipose tissue (BAT) of HFD-induced C57BL/6J DIO male mice administered with 600 U N-ABD094-rhArg (SEQ ID NO: 50) once a week for 4 weeks. The p62 protein is a receptor for cargo destined to be degraded by autophagy. The marked reduction in p62 levels from Day 1 to Day 3 indicated enhanced autophagy that coincided with the entry into the fasting phase. The increase in p62 levels from Day 5 to Day 7 implicated a decrease in autophagy, which coincided with the entry into the refeeding phase. *P<0.05, one-way ANOVA followed by Bonferroni test. Data are expressed as mean±SEM, n=4 for each group.
Ratio of LC3II/LC3-I was used as a marker of autophagy and semiquantified by western blotting. Chloroquine (an autophagy inhibitor, CQ) were injected 5 hr to accumulate autophagosomes in the BAT before tissue collection. *P<0.05, one-way ANOVA followed by Bonferroni test. Data are expressed as mean±SEM, n=4 for [HFD (vehicle)] and [HFD (rhArg)] group without CQ; n=3 for CQ-treated group.
Data are expressed as mean±SEM, n=4 each group.
The p62, also known as SQSTMl/sequestome 1, serves as a link between LC3B and ubiquitinated substrates and is efficiently degraded by autophagy. Thus, the level of p62 proteins can be used to monitor autophagic flux. For example, autophagic suppression correlates with an increased p62 level, and similarly, autophagic activation correlates with a decreased p62 level. […] Besides, the expression level of autophagy marker LC3B was detected in presence or absence of CQ (FIG. 50). The conversion of LC3B -I to the lower migrating form, LC3B-II, is used as an indicator of cellular autophagy level. The higher the LC3B-II/LC3B-I ratio indicates the higher incidence rate of autophagy in the tissue.

[4] = DIO male mice on HFD, Day 3 of cycle

B1: N-ABD094-rhArg: recombinant human arginase fused to albumin binding domain ABD094 (SEQ ID NO: 50); engineered long-acting arginine-depleting enzyme (protein)
chain: MHHHHHHDEAVDANSLAEAKEAANAELDSYGVSDFYKRLIDKAKTVEGVEALKDAILAALPSGSNNNNNNGSGGMSAKSRTIGIIGAPFSKGQPRGGVEEGPTVLRKAGLLEKLKEQECDVKDYGDLPFADIPNDSPFQIVKNPRSVGKASEQLAGKVAEVKKNGRISLVLGGDHSLAIGSISGHARVHPDLGVIWVDAHTDINTPLTTTSGNLHGQPVSFLLKELKGKIPDVPGFSWVTPCISAKDIVYIGLRDVDPGEHYILKTLGIKYFSMTEVDRLGIGKVMEETLSYLLGRKKRPIHLSFDVDGLDPSFTPATGTPVVGGLTYREGLYITEEIYKTGLLSGLDIMEVNPSLGKTPEEVTRTVNTAVAITLACFGLAREGNHKPIDYLNPPK
modifications: N-ABD094-rhArg, Synthesized in the Lab
notes: engineered long-acting arginine-depleting enzyme
In the case of B1, the Drop of bodyweight ([1]; 16-month old DIO C57BL/6J male mice on HFD, about 68 g prior to treatment, once a week, 25 weeks) is reported as 50%, the “Bodyweight maintained for the rest of the treatment period” value ([1]; 16-month old DIO C57BL/6J male mice on HFD, about 600 U once a week, 25 weeks) is reported as “around 30 g” and the “Bodyweight reached and maintained under treatment” value (from here on “Bodyweight reached and maintained”) ([1]; 17-month old C57BL/6J male mice on chow diet, about 600 U once a week, 21 weeks, from 40 g) is reported as 30 g. For the same molecule, the “Bodyweight reached and maintained” value ([1]; 25-month old C57BL/6J male mice on chow diet, about 600 U once a week, from 45 g within 3 weeks) was 30 g, the “Change in bodyweight under single treatment” value ([1]; DIO C57BL/6J male mice on HFD, 300 U rhArg once a week alone or 300 mg/kg metformin daily alone) was “stable body weight without further increase in body mass” and the “Change in bodyweight under single treatment” value ([1]; DIO C57BL/6J male mice on HFD, 300 U rhArg once a week alone or 300 mg/kg metformin daily alone, listed as rhArg) was “could only prevent further gain in bodyweight, but did not result in weight loss”. The Change in bodyweight ([1]; DIO C57BL/6J male mice on HFD, 600 U i.p. once a week, 5 weeks (artificial IF experiment)) was “substantial weight loss”, the “Decrease of bodyweight by the end of treatment” value ([1]; DIO C57BL/6J male mice on HFD, 600 U i.p. once a week, 5 weeks (reduced daily food intake experiment)) was 44% and the Reduction of bodyweight ([1]; DIO C57BL/6J male mice on HFD, about 600 U i.p. once a week, within 6-7 weeks) was 40%. The “Bodyweight reached and maintained” value ([1]; DIO C57BL/6J male mice on HFD, about 600 U once a week, 49 weeks, from 50 g within 6-7 weeks) was “around 30 g”, the “Bodyweight reached and maintained” value ([1]; DIO C57BL/6J male mice on HFD, about 600 U once a week, 49 weeks, from 50 g within 6-7 weeks, listed as rhArg) was 30 g and the “Change in bodyweight under single treatment” value ([1]; DIO C57BL/6J male mice on HFD, rhArg once a week alone or 0.33 mg RA daily alone) was “stable body weight without further increase”. For the same molecule, the “Change in bodyweight under single treatment” value ([1]; DIO C57BL/6J male mice on HFD, rhArg once a week alone or 0.33 mg RA daily alone, listed as rhArg) was “could only prevent further gain in bodyweight, but did not result in weight loss”, the Decrease of bodyweight ([1]; DIO ICR female mice on HFD, 1200 U i.p. once a week, within 9-10 weeks) was 30% and the “Bodyweight maintained for the rest of the treatment period” value ([1]; DIO ICR female mice on HFD, about 1200 U once a week, 56 weeks) was “around 35 g”. The “LC3-II/LC3-I ratio in liver upon chloroquine injection (autophagic flux)” value (LC3-II/LC3-I) was “dramatic increase; also recorded: enhancement of autophagic flux”, the ATF4 level ([2]; 24 hrs) was “dramatic increase” and the “Level of LC3B-II” value ([2]; after 1 hr and 4 hrs) was “significantly increased”. The “Phosphorylation level of p70S6K1” value ([2]; after 1 hr, 4 hrs, 8 hrs or 24 hrs) was “significantly decreased”, the “Level of p62” value ([2]; after 4 hrs and 8 hrs) was “significantly decreased” and the “Proportion of glycosylated POMC” value ([2]; after 24 hrs) was “significantly increased”. The “Phosphorylation level of eIF2α” value ([2]; at 8 hrs or 24 hrs) was “significant increase”, the “p62 protein level in BAT” value ([3]; DIO C57BL/6J male mice on HFD, days of the 7-day cycle) was “significant decrease in p62 level at Day 3 and Day 5” and the “LC3-II/LC3-I ratio in BAT upon chloroquine injection” value [3, 4] was “dramatic increase upon injection of CQ”. For the same molecule, the “ULK1 in BAT” value [3, 4] was “stimulation” and the “p70S6K1 in BAT” value [3, 4] was “significant suppression”.
